Source: publication PMC5330260 (Analytical biochemistry, 2017)

Biological target: Gαi1 (human, UniProt P63096 1-354)
Test: split reporter

Sequence of Gαi1 (P63096 whole entry): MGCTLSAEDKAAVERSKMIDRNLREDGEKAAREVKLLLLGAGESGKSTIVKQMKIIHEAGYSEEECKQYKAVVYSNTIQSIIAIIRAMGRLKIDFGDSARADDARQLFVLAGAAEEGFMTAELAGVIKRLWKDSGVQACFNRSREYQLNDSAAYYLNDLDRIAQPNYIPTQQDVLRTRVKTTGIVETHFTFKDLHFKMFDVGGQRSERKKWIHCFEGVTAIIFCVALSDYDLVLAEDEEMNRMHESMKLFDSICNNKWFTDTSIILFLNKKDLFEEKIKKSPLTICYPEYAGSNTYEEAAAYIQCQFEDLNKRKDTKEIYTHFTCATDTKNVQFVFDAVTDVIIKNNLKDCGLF

net signal increase in response to AlF4, fold of that of RGS6: 2.8 fold
net signal increase in response to AlF4, fold of that of RGS7: 6.3 fold
B1: RGS17 RH domain (domain or fragment, human, UniProt Q9UGC6 73-201, looked up)
chain: PTAEEVLSWSQNFDKMMKAPAGRNLFREFLRTEYSEENLLFWLACEDLKKEQNKKVIEEKARMIYEDYISILSPKEVSLDSRVREVINRNLLDPNPHMYEDAQLQIYTLMHRDSFPRFLNSQIYKSFVE
